For three sequences, Kd results are on record in the Immune Epitope Database (IEDB).

For one assay, the target named is HLA-B*83:01. Nature of the assay: IEDB peptide-MHC binding, purified MHC/competitive/fluorescence; filed as Kd, often an IC50 or EC50 that approximates it; ≥ and ≤ were set here for values at or beyond the usual limits of such assays.
The target in the next assay is HLA-B*15:42. The description is as above.
For the next assay, the target named is HLA-B*45:06. The description is as above.
Another assay concerns the target HLA-B*15:01. The description is as above. The following applies: source organism: Mycobacterium tuberculosis variant bovis BCG str. Pasteur 1173P2.
The target of assay [1] is HLA-A*26:01. The experiment in a line: IEDB peptide-MHC binding, purified MHC/direct/fluorescence; filed as Kd, often an IC50 or EC50 that approximates it; ≥ and ≤ were set here for values at or beyond the usual limits of such assays. The following applies: source organism: Mycobacterium tuberculosis str. Haarlem.
Another assay concerns the target HLA-B*40:01. The description is as above. The note with it: source organism: Mycobacterium tuberculosis.
The target of assay [2] is HLA-B*51:01. Described as above. The following applies: source organism: Mycobacterium tuberculosis.
For assay [3], the target named is HLA-B*39:01. The assay is described as above. The note with it: source organism: Mycobacterium tuberculosis str. Haarlem.
Another assay deals with HLA-B*08:02. The assay is described as above. The note with it: source organism: Mycobacterium tuberculosis str. Haarlem.
In assay [4] the target is HLA-B*46:01. Described as above. The following applies: source organism: Mycobacterium tuberculosis.
For a further assay, the target named is HLA-B*15:09. Described as above. The following applies: source organism: Mycobacterium tuberculosis str. Haarlem.
The target of the next assay is HLA-B*58:01. The assay is described as above.
The next assay deals with HLA-B*15:17. The description is as above. The note with it: source organism: Mycobacterium tuberculosis.
A further assay concerns the target HLA-B*48:01. The assay is described as above. The following applies: source organism: Mycobacterium tuberculosis.
For another assay, the target named is HLA-A*11:01. The assay is described as above. The note with it: source organism: Mycobacterium tuberculosis.
The next assay addresses HLA-B*08:01. The description is as above. The following applies: source organism: Mycobacterium tuberculosis str. Haarlem.
The target of a further assay is HLA-A*03:01. The assay is described as above.
For a further assay, the target named is HLA-B*38:01. The assay is described as above. The note with it: source organism: Mycobacterium tuberculosis str. Haarlem.
For another assay, the target named is HLA-A*31:01. Described as above. The note with it: source organism: Mycobacterium tuberculosis.
The target in assay [5] is HLA-A*02:01. Described as above.
The next assay has as its target HLA-A*01:01. Described as above. The following applies: source organism: Mycobacterium tuberculosis.
For assay [6], the target named is HLA-B*18:01. Described as above. The note with it: source organism: Mycobacterium tuberculosis.
A further assay has as its target HLA-B*27:05. The assay is described as above. The following applies: source organism: Mycobacterium tuberculosis.
Assay [7] addresses HLA-A*69:01. The description is as above.
Assay [8] addresses HLA-B*57:01. The assay is described as above. The note with it: source organism: Mycobacterium tuberculosis.
A further assay deals with HLA-A*32:07. Nature of the assay: IEDB peptide-MHC binding, purified MHC/competitive/fluorescence; filed as Kd, often an IC50 or EC50 that approximates it; ≥ and ≤ were set here for values at or beyond the usual limits of such assays. The following applies: source organism: Shewanella sp. W3-18-1.
The target of another assay is HLA-A*32:15. The description is as above. The note with it: source organism: Shewanella sp. W3-18-1.
The target of another assay is HLA-C*05:01. Nature of the assay: IEDB peptide-MHC binding, purified MHC/direct/fluorescence; filed as Kd, often an IC50 or EC50 that approximates it; ≥ and ≤ were set here for values at or beyond the usual limits of such assays. The following applies: source organism: Shewanella sp. W3-18-1.
Assay [9] addresses HLA-A*26:01. The experiment in a line: IEDB peptide-MHC binding, purified MHC/competitive/fluorescence; filed as Kd, often an IC50 or EC50 that approximates it; ≥ and ≤ were set here for values at or beyond the usual limits of such assays. The following applies: source organism: Zaire ebolavirus.
For assay [10], the target named is HLA-B*51:01. The description is as above. The following applies: source organism: Zaire ebolavirus.
Assay [11] deals with HLA-B*39:01. Described as above. The note with it: source organism: Zaire ebolavirus.
The target in assay [12] is HLA-B*46:01. The assay is described as above. The following applies: source organism: Zaire ebolavirus.
The next assay addresses HLA-B*27:03. The assay is described as above. The following applies: source organism: Zaire ebolavirus.
For assay [13], the target named is HLA-A*02:01. The description is as above. The note with it: source organism: Zaire ebolavirus.
The target in assay [14] is HLA-B*18:01. Described as above. The following applies: source organism: Zaire ebolavirus.
For assay [15], the target named is HLA-A*69:01. The assay is described as above. The following applies: source organism: Zaire ebolavirus.
Assay [16] has as its target HLA-B*57:01. The description is as above. The following applies: source organism: Zaire ebolavirus.
A further assay deals with HLA-A*02:11. The experiment in a line: IEDB peptide-MHC binding, purified MHC/direct/fluorescence; filed as Kd, often an IC50 or EC50 that approximates it; ≥ and ≤ were set here for values at or beyond the usual limits of such assays. The following applies: source organism: Zaire ebolavirus.
The target in a further assay is HLA-A*24:03. The description is as above. The following applies: source organism: Zaire ebolavirus.
A further assay has as its target HLA-A*02:12. The assay is described as above. The following applies: source organism: Zaire ebolavirus.
The target in a further assay is HLA-A*68:02. Described as above. The note with it: source organism: Zaire ebolavirus.
The target of another assay is HLA-A*23:01. The description is as above. The note with it: source organism: Zaire ebolavirus.
The next assay has as its target HLA-A*02:19. The assay is described as above. The following applies: source organism: Zaire ebolavirus.
The next assay has as its target HLA-A*02:03. The assay is described as above. The following applies: source organism: Zaire ebolavirus.
Setting [17] is: source organism: Mycobacterium tuberculosis variant bovis BCG str. Pasteur 1173P2.
The mark [18] stands for this setting: source organism: Mycobacterium tuberculosis.
[19] abbreviates: source organism: Shewanella sp. W3-18-1.
Setting [20] is: source organism: Salmonella enterica subsp. enterica serovar Typhimurium.

For orientation: Kd means the constant that tells how readily two partners part at equilibrium. Lower therefore signals higher affinity. RPRRASSPF: the Kd with HLA-B*83:01 (setting [17]) was 0.109 µM; in the assay with HLA-B*15:42 (setting [17]), not below 5 µM; in the assay with HLA-B*45:06 (setting [17]), not below 5 µM; with HLA-B*15:01, 0.288 µM; with HLA-A*26:01 [1], not below 20 µM; with HLA-B*40:01 it was not below 20 µM. The dissociation constant (Kd) with HLA-B*51:01 [2] was not below 20 µM; with HLA-B*39:01 [3], not below 20 µM; with HLA-B*08:02, 9.48 µM; with HLA-B*46:01 [4] it was not below 20 µM; with HLA-B*15:09 it was not below 20 µM; with HLA-B*58:01 (setting [18]) it was not below 20 µM. For the same sequence, the dissociation constant Kd was 0.273 µM in the assay with HLA-B*15:17; not below 20 µM with HLA-B*48:01; not below 20 µM with HLA-A*11:01; 0.036 µM in the assay with HLA-B*08:01; not below 20 µM with HLA-A*03:01 (setting [18]); not below 20 µM with HLA-B*38:01. Also, the dissociation constant Kd was not below 20 µM in the assay with HLA-A*31:01; not below 20 µM with HLA-A*02:01 [5] (setting [18]); not below 20 µM in the assay with HLA-A*01:01; 9.95 µM with HLA-B*18:01 [6]; not below 20 µM with HLA-B*27:05; not below 20 µM with HLA-A*69:01 [7] (setting [18]). Besides, the dissociation constant (Kd) with HLA-B*57:01 [8] was not below 20 µM.

As to LMMSSPPPI, the Kd is not below 5 µM with HLA-B*83:01 (setting [19]); 0.0508 µM with HLA-A*32:07; 0.137 µM in the assay with HLA-A*32:15; not below 5 µM in the assay with HLA-B*15:42 (setting [19]); not below 5 µM in the assay with HLA-B*45:06 (setting [19]); not below 20 µM with HLA-C*05:01. Moreover, the Kd is 0.0123 µM with HLA-A*02:01 [5] (setting [20]) and 0.174 µM with HLA-A*69:01 [7] (setting [20]).

In the case of TGIVSSMHY, the Kd in the assay with HLA-A*26:01 [9], with HLA-B*51:01 [10], with HLA-B*39:01 [11], with HLA-B*46:01 [12], with HLA-B*27:03 and in the assay with HLA-A*02:01 [13] was not below 20 µM each time. The Kd with HLA-B*18:01 [14], with HLA-A*69:01 [15], in the assay with HLA-B*57:01 [16], in the assay with HLA-A*02:11, in the assay with HLA-A*24:03 and with HLA-B*58:01 (source organism: Sudan ebolavirus - Maleo (1979)) was not below 20 µM in each case. The Kd with HLA-A*02:12, with HLA-A*03:01 (source organism: Zaire ebolavirus), with HLA-A*68:02, with HLA-A*23:01, with HLA-A*02:19 and in the assay with HLA-A*02:03 was not below 20 µM throughout.
